Legend:
[1] = molecular target: T1, human TrkB extracellular domain (aa Cys32-His430) expressed with the Fc portion of human IgG1 at the … (human); experiment: competition ELISA, 500 pM hTrkB-hFc pre-mixed with mAb, plate-coated hNT-4
T1 construct: also called hTrkB-hFc; hTrkB.hFc
Description: Experiments were carried out using the following procedure. Human BDNF or NT-4 were separately coated at a concentration of 0.5 μg/mL or 2 μg/mL, respectively, in PBS on a 96-well microtiter plate overnight at 4° C. […] Blocking solution and dilution buffer contained 5% (w/v) solution of BSA in PBS for assay with BDNF coat, or 0.5% (w/v) solution of BSA in PBS for assay with NT-4 coat. On separate microtiter plates, a constant amount of 500 pM of hTrkB-hFc protein was added to serial dilutions of antibodies with final concentrations ranging from 1.7 pM to 100 nM, and solutions with no antibody present. (The constant concentration of hTrkB-hFc for antibody inhibition assays was selected from the approximate midway point within the linear portion of individual binding curves of hTrkB-hFc to plate-coated hBDNF or hNT-4). After one hour incubation at room temperature, antibody-protein complexes with 500 pM constant concentration of hTrkB-hFc protein were transferred to microtiter plates coated with hBDNF or hNT-4. After one hour incubation at room temperature, the wells were washed, and plate-bound hTrkB-hFc was detected with anti-human Fcγ fragment specific goat polyclonal antibodies conjugated with horseradish peroxidase (JacksonImmunoResearch). The plate was then developed using TMB substrate solution (BD Biosciences) according to manufacturer's recommendation and absorbance at 450 nm was measured on a Victor plate reader (PerkinElmer™).
The ability of anti-TrkB antibodies to block TrkB binding to BDNF or NT-4 was assessed using two competition sandwich ELISAs. Human TrkB-hFc binding to hBDNF or hNT-4 coated on 96-well microtiter plates, in the presence of serially diluted antibodies or no antibody controls, were detected with HRP-conjugated anti-human Fcγ fragment specific goat polyclonal antibodies. IC₅₀ values were calculated and used as the potency indicator of antibody blocking hTrkB-hFc binding to hBDNF or hNT-4. In addition, the maximum blockade of 500 pM hTrkB-hFc with each antibody at the highest tested concentration was calculated and compared.

[2] = molecular target: T2, human TrkB extracellular domain expressed with a C-terminal mouse IgG2a Fc tag (human); experiment: BLI Octet, captured hTrkB.mFc, 300 nM mAb (BDNF run)
T2 construct: also called hTrkB-mFc; hTrkB.mFc
Description: (§1) Blocking of anti-human TrkB or anti-mouse TrkB antibodies from binding to TrkB by BDNF or NT-4 was evaluated using a real-time bio-layer interferometry (BLI) based Octet HTX instrument. The entire study was performed in 10 mM HEPES pH 7.4, 300 mM NaCl, 3 mM EDTA, 1 mg/mL BSA, 0.02% NaN3 and 0.05% v/v Surfactant Tween-20 (HBS-EBT running buffer) at 25° C. All the samples were dispensed in a 384 tilted well plate and the plate was placed on the orbital shaker with the shake speed of 1000 rpm. hTrkB.mFc was captured on anti-mFc (AMC) Octet sensors while hTrkB.hFc or mTrkB.hFc were captured on anti-hFc (AHC) Octet sensors by dipping in wells containing 10 μg/mL of TrkB reagents for 2 minutes. hTrkB.mFc or hTrkB.hFc captured Octet biosensors were saturated by dipping in wells containing 20 nM of BDNF, hNT-4, or mNT-4 for 2 minutes followed by dipping Octet biosensors in wells containing 300 nM of different TrkB mAbs for 4 minutes. Binding of TrkB mAbs to the complex of TrkB and BDNF, hNT-4, or mNT-4 was determined using Scrubber 2.0c analysis software.

[3] = molecular target: T3, rat TrkB extracellular domain expressed with a C-terminal myc-myc-hexahistidine tag (rat, UniProt Q63604 32-429); experiment: blocking ELISA, rat TrkB.mmh pre-mixed with mAb, plate-coated BDNF
T3 construct: also called rTrkB.mmH; rTRKB.mmH
Description: Experiments were carried out using the following procedure. Human BDNF was coated at a concentration of 0.5 μg/mL (for blocking mouse TrkB.hFc interaction) or 0.3 μg/mL (for blocking rat TrkB.mmh interaction) in PBS on 96-well microtiter plate and incubated overnight at 4° C. […] In a 96-well dilution plate, 850 pM mouse TrkB.hFc or rat TrkB.mmh was mixed with the three-fold serially diluted anti-mouse TrkB antibodies and control antibody. The final antibody concentrations ranged from 1.69 pM to 100 nM. The protein-antibody mix was incubated at room temperature (RT) for 1 hour. The pre-bound mix was then transferred in duplicates to microtiter plates coated with BDNF. A control containing assay buffer alone was included to calculate the baseline of the assay. The ELISA plates were incubated at RT for 1 hour and then washed with plate washing solution. Plate-bound mouse TrkB.hFc was detected with HRP-conjugated goat anti-human Fcγ fragment specific antibody (Jackson Immunoresearch) and rat TrkB.mmh was detected with HRP-conjugated anti-histidine antibody (Qiagen). The plates were incubated with detection antibody for 1 hour at RT and then washed with plate washing solution. The assay plates were developed with TMB colorimetric substrates according to the manufacturer's recommended procedure.
The absorbance at 450 nm for each well was recorded and plotted as a function of the concentration of antibody. Data was analyzed in GraphPad Prism software using a four-parameter logistic equation over an 11-point dose response curve and IC₅₀ values were calculated. […] Percent blockade at maximum concentration of the antibody tested was calculated as an indicator of the ability of the antibodies to block the binding of TrkB to BDNF on the plate relative to the baseline of the assay. Binding signal of 850 pM mouse or rat TrkB in absence of the antibody was defined as 100% binding or 0% blocking. The baseline signal of assay buffer alone was defined as 0% binding or 100% blocking.

[4] = molecular target: T4, mouse TrkB.hFc (mouse); experiment: BLI Octet, captured mTrkB.hFc saturated with mNT-4, 300 nM mAb
T4 construct: also called mTrkB.hFc; mTrkB-hFc
Description: as §1

[5] = molecular target: T4, mouse TrkB.hFc; experiment: BLI Octet, captured mTrkB.hFc, 300 nM mAb, no ligand
Description: as §1

[6] = molecular target: human TrkB expressed on HEK293/SRE-Luc/hTrkB cells (human, UniProt Q16620 32-822); experiment: cell-based or functional assay
[7] = molecular target: mouse TrkB extracellular domain fused to the transmembrane and cytoplasmic domains of human TrkB, expressed … (mouse; human, UniProt Q16620 431-822, limits assumed); experiment: cell-based or functional assay
Chain of mouse TrkB extracellular domain fused to the transmembrane and cytoplasmic domains of human TrkB, expressed … (Q16620 other isoform, or with tags, fused parts or gaps limits assumed, form in doubt): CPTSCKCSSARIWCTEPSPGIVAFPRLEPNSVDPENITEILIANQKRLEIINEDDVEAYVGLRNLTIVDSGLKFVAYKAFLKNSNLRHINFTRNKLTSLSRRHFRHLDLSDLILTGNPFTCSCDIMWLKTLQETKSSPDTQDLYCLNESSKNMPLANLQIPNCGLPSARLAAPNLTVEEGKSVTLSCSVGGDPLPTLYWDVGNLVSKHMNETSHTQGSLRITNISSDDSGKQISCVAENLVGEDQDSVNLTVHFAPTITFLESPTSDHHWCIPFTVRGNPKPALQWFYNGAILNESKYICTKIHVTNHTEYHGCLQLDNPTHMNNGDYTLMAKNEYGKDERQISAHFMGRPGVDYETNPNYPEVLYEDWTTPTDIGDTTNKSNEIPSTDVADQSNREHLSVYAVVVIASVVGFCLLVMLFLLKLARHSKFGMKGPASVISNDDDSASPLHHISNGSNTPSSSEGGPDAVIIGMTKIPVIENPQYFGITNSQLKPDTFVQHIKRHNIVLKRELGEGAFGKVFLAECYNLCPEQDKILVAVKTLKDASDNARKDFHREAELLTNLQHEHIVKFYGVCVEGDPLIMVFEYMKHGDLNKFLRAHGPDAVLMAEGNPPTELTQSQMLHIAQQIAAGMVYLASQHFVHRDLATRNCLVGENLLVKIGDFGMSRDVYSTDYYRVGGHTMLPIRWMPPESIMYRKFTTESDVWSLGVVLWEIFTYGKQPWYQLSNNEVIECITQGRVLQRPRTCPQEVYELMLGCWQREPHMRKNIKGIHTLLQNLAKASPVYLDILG

T4 sequence (chain, as listed by the source limits assumed): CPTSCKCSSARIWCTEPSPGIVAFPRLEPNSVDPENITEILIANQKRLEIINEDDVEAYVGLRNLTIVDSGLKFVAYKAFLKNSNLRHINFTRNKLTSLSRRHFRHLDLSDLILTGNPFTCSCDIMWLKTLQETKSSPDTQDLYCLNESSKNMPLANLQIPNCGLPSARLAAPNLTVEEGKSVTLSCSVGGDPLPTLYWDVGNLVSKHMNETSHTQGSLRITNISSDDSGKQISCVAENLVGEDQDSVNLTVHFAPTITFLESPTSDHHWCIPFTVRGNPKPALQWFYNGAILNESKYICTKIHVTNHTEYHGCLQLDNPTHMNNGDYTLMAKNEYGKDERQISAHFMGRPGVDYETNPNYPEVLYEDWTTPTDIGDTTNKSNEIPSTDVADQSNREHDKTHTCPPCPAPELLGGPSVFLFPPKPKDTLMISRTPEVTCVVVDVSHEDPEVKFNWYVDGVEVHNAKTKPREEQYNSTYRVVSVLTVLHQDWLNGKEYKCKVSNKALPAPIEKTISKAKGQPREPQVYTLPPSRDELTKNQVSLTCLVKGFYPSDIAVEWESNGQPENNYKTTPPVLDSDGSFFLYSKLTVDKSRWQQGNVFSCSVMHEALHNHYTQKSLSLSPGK
T2 sequence (chain, as listed by the source limits assumed): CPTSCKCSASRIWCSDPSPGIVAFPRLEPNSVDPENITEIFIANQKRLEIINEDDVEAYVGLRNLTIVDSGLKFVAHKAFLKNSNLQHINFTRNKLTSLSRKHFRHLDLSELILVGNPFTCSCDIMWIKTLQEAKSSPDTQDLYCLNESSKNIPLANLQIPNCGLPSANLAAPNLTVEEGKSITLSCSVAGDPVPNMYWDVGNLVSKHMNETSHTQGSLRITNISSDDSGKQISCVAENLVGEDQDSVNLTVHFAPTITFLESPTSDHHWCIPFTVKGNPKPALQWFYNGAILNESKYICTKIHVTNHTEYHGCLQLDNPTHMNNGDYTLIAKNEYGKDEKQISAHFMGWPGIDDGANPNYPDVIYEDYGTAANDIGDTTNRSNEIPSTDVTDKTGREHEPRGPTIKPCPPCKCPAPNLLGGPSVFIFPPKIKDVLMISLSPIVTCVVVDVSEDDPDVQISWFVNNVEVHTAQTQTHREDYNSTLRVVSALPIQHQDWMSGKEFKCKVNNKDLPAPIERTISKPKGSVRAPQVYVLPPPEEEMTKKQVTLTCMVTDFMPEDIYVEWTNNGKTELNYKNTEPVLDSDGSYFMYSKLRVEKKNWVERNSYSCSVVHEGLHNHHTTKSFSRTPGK
T1 sequence (chain, as listed by the source limits assumed): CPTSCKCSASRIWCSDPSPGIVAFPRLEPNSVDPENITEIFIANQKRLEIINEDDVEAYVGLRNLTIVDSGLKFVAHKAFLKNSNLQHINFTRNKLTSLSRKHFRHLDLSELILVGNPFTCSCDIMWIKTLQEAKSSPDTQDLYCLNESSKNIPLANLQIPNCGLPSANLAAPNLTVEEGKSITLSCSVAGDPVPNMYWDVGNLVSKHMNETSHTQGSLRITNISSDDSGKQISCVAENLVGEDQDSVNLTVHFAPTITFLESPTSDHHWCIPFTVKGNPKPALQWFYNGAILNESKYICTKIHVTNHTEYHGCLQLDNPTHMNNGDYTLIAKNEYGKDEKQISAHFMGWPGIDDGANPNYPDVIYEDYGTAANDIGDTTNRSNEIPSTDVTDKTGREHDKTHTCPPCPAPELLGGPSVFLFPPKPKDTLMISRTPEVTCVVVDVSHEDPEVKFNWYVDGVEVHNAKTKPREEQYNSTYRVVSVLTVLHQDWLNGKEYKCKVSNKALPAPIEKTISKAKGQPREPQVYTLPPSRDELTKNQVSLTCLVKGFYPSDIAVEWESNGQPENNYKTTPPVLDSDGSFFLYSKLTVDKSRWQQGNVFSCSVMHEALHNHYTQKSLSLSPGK
Chain of human TrkB expressed on HEK293/SRE-Luc/hTrkB cells (Q16620 32-822): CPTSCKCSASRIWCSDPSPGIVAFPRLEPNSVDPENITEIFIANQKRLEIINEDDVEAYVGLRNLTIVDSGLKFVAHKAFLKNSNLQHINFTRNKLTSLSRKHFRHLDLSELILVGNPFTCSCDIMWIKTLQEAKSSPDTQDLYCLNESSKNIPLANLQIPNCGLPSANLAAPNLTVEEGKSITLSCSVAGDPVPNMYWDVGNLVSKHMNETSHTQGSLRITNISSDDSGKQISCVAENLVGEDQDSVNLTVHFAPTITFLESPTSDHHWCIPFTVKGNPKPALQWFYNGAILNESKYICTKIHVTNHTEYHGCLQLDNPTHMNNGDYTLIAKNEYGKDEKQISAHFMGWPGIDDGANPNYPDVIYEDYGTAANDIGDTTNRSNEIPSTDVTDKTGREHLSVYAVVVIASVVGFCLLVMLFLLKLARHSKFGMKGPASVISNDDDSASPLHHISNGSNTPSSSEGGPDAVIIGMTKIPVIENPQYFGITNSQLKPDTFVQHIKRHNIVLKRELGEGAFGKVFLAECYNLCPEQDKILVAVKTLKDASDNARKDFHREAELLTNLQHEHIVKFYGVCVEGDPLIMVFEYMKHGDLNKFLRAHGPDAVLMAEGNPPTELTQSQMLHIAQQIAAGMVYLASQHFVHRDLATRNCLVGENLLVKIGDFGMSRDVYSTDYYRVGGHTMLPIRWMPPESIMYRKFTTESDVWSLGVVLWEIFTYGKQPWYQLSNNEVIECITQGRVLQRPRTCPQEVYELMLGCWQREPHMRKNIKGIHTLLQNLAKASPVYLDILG
T3 sequence (Q63604 other isoform, or with tags, fused parts or gaps): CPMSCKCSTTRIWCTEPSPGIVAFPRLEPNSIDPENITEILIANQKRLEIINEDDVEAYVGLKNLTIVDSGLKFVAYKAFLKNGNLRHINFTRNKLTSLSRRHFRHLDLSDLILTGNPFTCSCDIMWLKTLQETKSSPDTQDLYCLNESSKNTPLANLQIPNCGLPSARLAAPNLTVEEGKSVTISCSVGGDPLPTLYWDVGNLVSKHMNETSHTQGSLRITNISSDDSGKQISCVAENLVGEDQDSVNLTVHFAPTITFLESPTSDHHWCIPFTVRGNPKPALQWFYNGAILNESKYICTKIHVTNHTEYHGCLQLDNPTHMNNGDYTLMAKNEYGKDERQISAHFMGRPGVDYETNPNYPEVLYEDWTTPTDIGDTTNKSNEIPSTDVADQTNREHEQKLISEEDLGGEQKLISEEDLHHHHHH

| Binder | % Blockade with 100 nM antibody [1] | IC50 [1] | mAb Binding (nm) [2] | % Blockade with 100 nM antibody [3] | IC50 [3] | antibody Binding (nm) [4] | antibody Binding (nm) [5] | Activation (%), SRE-luciferase, 100 pM BDNF [6] | Activation (%), SRE-luciferase, No BDNF [6] | EC50 (M), SRE-luciferase, 100 pM BDNF [6] | EC50 (M), SRE-luciferase, No BDNF [6] | Activation (%), SRE-luciferase, 100 pM BDNF [7] | Activation (%), SRE-luciferase, No BDNF [7] | EC50 (M), SRE-luciferase, 100 pM BDNF [7] | EC50 (M), SRE-luciferase, No BDNF [7] |
| --- | --- | --- | --- | --- | --- | --- | --- | --- | --- | --- | --- | --- | --- | --- | --- |
| H1M8037C (antibody, mouse IgG1, kappa, V domains shown, captured by anti-mFc in SPR; also called Comparator; comparator anti-TrkB monoclonal antibody) VH: QVQLVQSGAEVKKPGASVKVSCKASGYTFTNYDIIWVRQAPGQGLEWMGYINPYNDGTKYNEKFKGRVTMTRDTSTSTVYMELSSLRSEDTAVYYCARLLKYRRFRYYAIDYWGQGTTVTVSS VL: DIQMTQSPSSLSASVGDRVTITCRTSENVYSNLAWYQQKPGKAPKLLIYAASNLQSGVPSRFSGSGSGTDYTFTISSLQPEDIATYYCQHFWGSPFTFGQGTKLEIKR | 95% | 45 pM |  | 83.3% | 1420 pM | 0.11 nm | 0.42 nm | 79% | 80% | 1.1e-10 M | 5.7e-11 M | 69% | 85% | 4.2e-11 M | 4.3e-11 M |
| M2aM14179N (antibody, mouse IgG2a, kappa, V domains shown, Anti-mouse TrkB antibody from hybridoma, mouse IgG2a Fc; also called surrogate anti-mouse TrkB antibody) VH: EVQLQQSGPELVKPGASVKISCKASGYTLTDYYMNWVKQSHGKSLEWIGDINPNNGGTSYNQKFKGKATLTVDKSSSTAYMELRSLTSEDSAVYYCARGAYYSNYFDYWGQGTTLTVSS VL: DIVMSQSPSSLAVSAGEKVTMSCKSSQSLLNSRTRKNYLAWYQQKPGQSPKLLIYWASTRESGVPDRFTGSGSGTDFTLTISSVQAEDLAVYYCKQSYILFTFGSGTQLEIKR |  |  |  | -38.1% |  | 0.43 nm | 0.42 nm | 52% | 4% |  |  | 75% | 87% | 2.1e-11 M | 3.4e-11 M |
| M2aM14173N (antibody, mouse IgG2a, kappa, V domains shown, Anti-mouse TrkB antibody from hybridoma, mouse IgG2a Fc; also called surrogate anti-mouse TrkB antibody) VH: NVSLVESGGGSVKPGGSLQLSCAASGFTFSSSAMSWIRQTPEMRLEWVATISDRGSYTYYPDSVEGRFTISRDNAKNILYLQMSHLMSEDTAMYYCARGKGEKAYYTAFFAYWGQGSLVTVSA VL: DIQMTQSPASLSASVGETVTITCRASENIYSYLAWYQQKPGKSPHLLVHNAETLAEGVPSRFSGSGSGPQFSLKINSLQPGDSGTYYCQHHYSSPWTFGGGTKLEIKR |  |  |  | 80.7% | 3810 pM | 0.4 nm | 0.42 nm | 59% | 2% |  |  | 74% | 94% | 1.7e-11 M | 3.6e-11 M |

The remaining lines, values ahead:

| % Blockade with 100 nM antibody [1] | IC50 [1] | mAb Binding (nm) [2] | % Blockade with 100 nM antibody [3] | IC50 [3] | antibody Binding (nm) [4] | antibody Binding (nm) [5] | Activation (%), SRE-luciferase, 100 pM BDNF [6] | Activation (%), SRE-luciferase, No BDNF [6] | EC50 (M), SRE-luciferase, 100 pM BDNF [6] | EC50 (M), SRE-luciferase, No BDNF [6] | Activation (%), SRE-luciferase, 100 pM BDNF [7] | Activation (%), SRE-luciferase, No BDNF [7] | EC50 (M), SRE-luciferase, 100 pM BDNF [7] | EC50 (M), SRE-luciferase, No BDNF [7] | Binder |
| --- | --- | --- | --- | --- | --- | --- | --- | --- | --- | --- | --- | --- | --- | --- | --- |
| 80% | 180 pM | 0.18 nm |  |  |  |  |  |  |  |  |  |  |  |  | H4H9780P (antibody, human IgG4 S228P, kappa, V domains shown, Fully human anti-human TrkB agonist antibody, human IgG4 Fc; also called H4H9780P-L1) VH: QVQLVESGGGVVQPGRSLRLSCAASGFSFSSFGMHWVRQAPGKGLEWVSVISYDGINTYYTDSVKGRFTISRDNSKNTLYLQMNGLRAEDTALYYCVQGSIGTVFEYWGQGTLVTVSS VL: DIQMTQSPSSLSASVGDRVTITCRASQGISNYLAWYQQKPGKVPKLLIYAASTLQSGVPSRFGGSGSGTDFTLTISSLQPEDVATYYCQKYTSAPFTFGPGTKVDIKR |
| -123% |  | 0.19 nm |  |  |  |  |  |  |  |  |  |  |  |  | H4H9816P2 (antibody, human IgG4 S228P, kappa, V domains shown, Fully human anti-human TrkB agonist antibody, human IgG4 Fc; also called H4H9816P-L1) VH: EVQLVESGGGLVQPGGSLTLSCAASGFNFRDYEMIWVRQTPGKGLEWISYISNSGYTIYYADSVKGRFTISRDNARNSIYLQVNSLRAEDTAVYYCSRRTTMIRGIRAYYYYGLDVWGQGTTVTVSS VL: not shown |
| 38% |  | 0.18 nm |  |  |  |  |  |  |  |  |  |  |  |  | H4H9814P (antibody, human IgG4 S228P, kappa, V domains shown, Fully human anti-human TrkB agonist antibody, human IgG4 Fc; also called H4H9814P-L1) VH: EVQLVESGGGLVQPGGSLKLSCTASGFTFSGSVIHWVRQASGKGLEWIGRIRNKANSYATAYGASVTGRFTISRDDSKNTAYLQMNSLKTEDTAVYYCTFPGVVGRGGFDYWGQGTLVTVSS VL: DIVMTQSPDSLAVSLGEGATINCMSSQSVLFSSNNKNYLAWYQQKPGQPPKLLFYWASTRESGVPDRFGGSGSGTDFSLTINSLQTEDVAVYYCLQYYSIPWTFGQGTKVEIKR |

Reference: US20190161551A1 (Regeneron, published 2019)
